Data set [1] addresses TFIID–TFIIA complex on promoter DNA (TFIID–TFIIA–promoter complex) (human) (UniProt P20226). Kind of data set: single-molecule fluorescence colocalisation (TIRF); supercore promoter DNA and a mutant control template (-63 to +90) immobilised via biotin–streptavidin; dye-labelled factors injected with unlabelled ones; a signal within ∼40 nm of a DNA position counted as binding; 2.5 Hz; 11.3 mM HEPES pH 7.9, 5.6 mM MgCl2, 45 mM KCl; the target protein is DNA-bound.

Data set [2] deals with T1, TBP;TFIIA;TFIIB full length (human;human;human, UniProt P20226;P52655;P52657;Q00403 1-339;1-376;1-109;1-316, ||). Description: EMSA; 10 nM DNA; similar efficiency to supercore; Single-molecule: 11.3 mM HEPES pH 7.9, 5.6 mM MgCl2, 45 mM KCl, 45 uM EDTA, 4.5% glycerol, 3.6 ng/ul tRNA, 0.1 ng/ul poly(dG:dC), 0.09% Tween 20, 0.0045% NP40. The conditions noted are these: protein: recombinant;recombinant;recombinant; tags: N-terminal 6xHis-HaloTag; TMR; GST removed by Ulp1;N-terminal tag incl. thrombin site, Ni-NTA purified; Alexa647 or TMR; copies: 1;1;1;1; label: 5' Cy3 or Atto633; 5' biotin; blunt. A general note: Mobility shift assays separate free from complexed probe on a gel.
T1 sequence (P20226 whole entry, chain 1 of 4): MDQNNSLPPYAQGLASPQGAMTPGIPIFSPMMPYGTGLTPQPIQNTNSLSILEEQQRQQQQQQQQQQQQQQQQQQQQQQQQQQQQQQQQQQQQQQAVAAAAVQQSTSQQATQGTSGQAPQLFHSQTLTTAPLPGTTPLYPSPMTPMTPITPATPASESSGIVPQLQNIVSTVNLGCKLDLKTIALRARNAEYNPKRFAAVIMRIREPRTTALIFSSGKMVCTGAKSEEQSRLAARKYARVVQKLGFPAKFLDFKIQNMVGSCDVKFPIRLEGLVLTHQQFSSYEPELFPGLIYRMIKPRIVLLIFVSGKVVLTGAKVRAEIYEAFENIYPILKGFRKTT
T1 sequence (P52655 whole entry, chain 2 of 4): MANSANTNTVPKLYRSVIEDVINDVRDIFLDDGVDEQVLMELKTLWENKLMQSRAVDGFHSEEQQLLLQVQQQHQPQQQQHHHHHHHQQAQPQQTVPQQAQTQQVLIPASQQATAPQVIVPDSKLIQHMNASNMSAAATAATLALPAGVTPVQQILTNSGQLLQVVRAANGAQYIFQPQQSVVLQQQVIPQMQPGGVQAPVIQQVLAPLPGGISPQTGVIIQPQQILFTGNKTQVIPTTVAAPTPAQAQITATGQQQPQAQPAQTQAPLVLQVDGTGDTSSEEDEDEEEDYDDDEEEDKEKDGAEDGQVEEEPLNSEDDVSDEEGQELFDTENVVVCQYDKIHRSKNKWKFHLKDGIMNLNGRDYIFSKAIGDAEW
T1 sequence (P52657 whole entry, chain 3 of 4): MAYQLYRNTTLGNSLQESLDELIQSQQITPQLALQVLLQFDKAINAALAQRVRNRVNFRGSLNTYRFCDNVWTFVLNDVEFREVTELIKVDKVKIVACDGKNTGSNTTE
T1 sequence (Q00403 whole entry, chain 4 of 4): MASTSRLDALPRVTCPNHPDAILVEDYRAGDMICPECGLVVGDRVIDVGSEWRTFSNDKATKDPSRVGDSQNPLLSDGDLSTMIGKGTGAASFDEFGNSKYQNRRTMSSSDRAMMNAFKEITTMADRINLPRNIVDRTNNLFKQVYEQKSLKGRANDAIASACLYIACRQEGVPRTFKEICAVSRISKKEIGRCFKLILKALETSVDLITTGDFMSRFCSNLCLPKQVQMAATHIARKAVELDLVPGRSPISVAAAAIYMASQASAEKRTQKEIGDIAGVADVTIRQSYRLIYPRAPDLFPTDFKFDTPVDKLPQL

Data set [3] deals with T1, TBP;TFIIA;TFIIB full length. Description: EMSA; 10 nM DNA; Single-molecule: 11.3 mM HEPES pH 7.9, 5.6 mM MgCl2, 45 mM KCl, 45 uM EDTA, 4.5% glycerol, 3.6 ng/ul tRNA, 0.1 ng/ul poly(dG:dC), 0.09% Tween 20, 0.0045% NP40. As to conditions: protein: recombinant;recombinant;recombinant; tags: N-terminal 6xHis-HaloTag; TMR; GST removed by Ulp1;N-terminal tag incl. thrombin site, Ni-NTA purified; Alexa647 or TMR; copies: 1;1;1;1; label: 5' Cy3 or Atto633; 5' biotin; blunt.

TFIID–TFIIA complex on promoter DNA (TFIID–TFIIA–promoter complex) (human), sequence (P20226 whole entry, looked up, one chain of several): as the sequence (P20226 whole entry, chain 1 of 4) above

In data set [1], “TFIIB, full-length (FL) (from UniProt Q00403 1-316) (natural protein)” had a DNA-binding efficiency (percent of supercore templates colocalising with TFIIB) of 30%, an average residence time of 1.5 s and an average waiting time after TFIIA arrival (∼8 nM TFIIB) of 3 s.

B1: Mutant control template, EMSA (dsDNA)
DNA 1: CATAACCATATGTATCATACACATACGGTACACGTATGTGGGGGTGGGGGCGCGTTCGTCCTGTGACACGATCGAACACTCGAGCCGAGCAGCATAGCCTACGGACCGCAAGCTTCCCTATCCCTTATCTTAACCACTCCAATTACATACACC
DNA 2: GGTGTATGTAATTGGAGTGGTTAAGATAAGGGATAGGGAAGCTTGCGGTCCGTAGGCTATGCTGCTCGGCTCGAGTGTTCGATCGTGTCACAGGACGAACGCGCCCCCACCCCCACATACGTGTACCGTATGTGTATGATACATATGGTTATG
On to B1, for which the binding result in data set [2] is “binds”.

B2: Supercore promoter template, EMSA (dsDNA)
DNA 1: CATAACCATATGTATCATACACATACGGTACTTATATAAGGGGGTGGGGGCGCGTTCGTCCTCAGTCGCGATCGAACACTCGAGCCGAGCAGACGTGCCTACGGACCGCAAGCTTCCCTATCCCTTATCTTAACCACTCCAATTACATACACC
DNA 2: GGTGTATGTAATTGGAGTGGTTAAGATAAGGGATAGGGAAGCTTGCGGTCCGTAGGCACGTCTGCTCGGCTCGAGTGTTCGATCGCGACTGAGGACGAACGCGCCCCCACCCCCTTATATAAGTACCGTATGTGTATGATACATATGGTTATG
B2: the binding result in data set [3] is recorded as “binds”.
